According to FireProtDB (doi:10.1021/bi00093a001):

B1: Subtilisin-chymotrypsin inhibitor-2A, P01053 (parent)
chain: MSSVEKKPEGVNTGAGDRHNLKTEWPELVGKSVEEAKKVILQDKPEAQIIVLPVGTIVTMEYRIDRVRLFVDKLDNIAQVPRVG

Variants of: B1
Settings: Hordeum vulgare, MES 450 mM, reversible: yes, structure 2CI2, whole UniProt chain shown; for ddG of mutation (higher = less stable) / heat capacity change of unfolding / denaturant m value / denaturant midpoint (higher = more stable) / unfolding free energy: 25 °C

Variant	ddG of mutation (higher = less stable) (pH 3, Thermal, DSC) [kcal/mol]	heat capacity change of unfolding (pH 3, Thermal, DSC) [kcal/mol/K]	Tm (pH 3, Thermal, DSC) [°C]	change of melting temperature, mutant - wild type (higher = more stable) (pH 3, Thermal, DSC) [°C]	unfolding enthalpy (calorimetric) (pH 3, Thermal, DSC) [kcal/mol]	unfolding enthalpy (van 't Hoff) (pH 3, Thermal, DSC) [kcal/mol]	Tm (pH 3.5, Thermal, DSC) [°C]	change of melting temperature, mutant - wild type (higher = more stable) (pH 3.5, Thermal, DSC) [°C]	unfolding enthalpy (calorimetric) (pH 3.5, Thermal, DSC) [kcal/mol]	unfolding enthalpy (van 't Hoff) (pH 3.5, Thermal, DSC) [kcal/mol]	ddG of mutation (higher = less stable) (pH 6.3, GdnHCl, Fluorescence) [kcal/mol]	denaturant m value (pH 6.3, GdnHCl, Fluorescence) [kcal/mol/M]	denaturant midpoint (higher = more stable) (pH 6.3, GdnHCl, Fluorescence) [M]	unfolding free energy (pH 6.3, GdnHCl, Fluorescence) [kcal/mol]	ddG of mutation (higher = less stable) (pH 3.5, Thermal, DSC) [kcal/mol]	heat capacity change of unfolding (pH 3.5, Thermal, DSC) [kcal/mol/K]
MSSVEKKPEGVNTGAGDRHNLKTEWPELVGKSVEEAKKVVLQDKPEAQIIVLPVGTIVTMEYRIDRVRLFVDKLDNIAQVPRVG [I40V]	1.2	0.72	57.7	-6.3	53.7	54.8	67.3	-6.5	61.5	62.5	0.91	1.99	3.33	6.63	–	–
MSSVEKKPEGVNTGAGDRHNLKTEWPELVGKSVEEAKKVILQDKPEAQIIVLPVGTIVTMEYRIDRARLFVDKLDNIAQVPRVG [V67A]	–	–	–	–	–	–	45.3	-28.5	37.3	35.8	4.97	1.76	1.46	2.57	–	–
MSSVEKKPEGVNTGAGDRHNLKTEWPELVGKSVEEAKKVILQDKPEAQVIVLPVGTIVTMEYRIDRVRLFVDKLDNIAQVPRVG [I49V]	–	–	–	–	–	–	69.1	-4.7	62.4	61.6	0.75	1.99	3.43	6.8	0.92	0.72
MSSVEKKPEGVNTGAGDRHNLKTEWPELVGKSVEEAKKVILQDKPEAQAIVLPVGTIVTMEYRIDRVRLFVDKLDNIAQVPRVG [I49A]	–	–	–	–	–	–	52.5	-21.3	44.9	46.9	3.4	2.07	2	4.14	3.89	0.72
MSSVEKKPEGVNTGAGDRHNLKTEWPELVGKSVEEAKKAILQDKPEAQIIVLPVGTIVTMEYRIDRVRLFVDKLDNIAQVPRVG [V39A]	0.46	0.72	61.1	-2.9	58.5	58.6	–	–	–	–	0	2.01	3.75	7.54	–	–
MSSVEKKPEGVNTGAGDRHNLKTEWPEAVGKSVEEAKKVILQDKPEAQIIVLPVGTIVTMEYRIDRVRLFVDKLDNIAQVPRVG [L28A]	–	–	48.5	-15.5	45	44.4	–	–	–	–	1.91	2.15	2.62	5.63	–	–
MSSVEKKPEGVNTGAGDRHNLKTEWPELVGKSVEEAKKVILQDKPEAQIIVLPVGTIVTMEYRIDRVRAFVDKLDNIAQVPRVG [L69A]	–	–	–	–	–	–	52.3	-21.5	46.7	46.9	3.56	1.98	2.01	3.98	3.74	0.72
MSSVEKKPEGVNTGAGDRHNLKTEWPELVGKSVEEAKKVILQDKPEAQAIVLPVGTIVTMEYRIDRVRLFVDKLDNVAQVPRVG [I49A I77V]	–	–	–	–	–	–	–	–	–	–	4.08	1.83	1.9	3.46	4.69	0.72
MSSVEKKPEGVNTGAGDRHNLKTEWPELVGKSVEEAKKVILQDKPEAQIIVLPVGTIVTMEYRIDRVRLFVDKLDNVAQVPRVG [I77V]	-0.09	0.72	65.4	1.4	60.5	60.5	–	–	–	–	–	–	–	–	–	–
MSSVEKKPEGVNTGAGDRHNLKTEWPELVGKSVEEAKKVILQDKPEAQIIVLPVGTIVTMEYRIDRVRLFVDKLDNAAQVPRVG [I77A]	4.23	0.72	38.3	-25.7	30.2	37.2	50.3	-23.5	41	46.8	4.09	1.93	1.79	3.45	4.34	0.72
MSSVEKKPEGVNTGAGDRHNLKTEWPELVGKSVEEAKKVILQDKPEAQIIVLPVGTIVTMEYRIDRVRLFADKLDNIAQVPRVG [V71A]	2.17	0.72	51.3	-12.7	48.5	49.7	–	–	–	–	1.13	2.15	2.98	6.41	–	–
